Data on four molecules can be found in US20210292396A1.

What all share (experiment): cell-based or functional assay
Test [1] has as its target Env of HIV isolate QH0515.01 (clade B) (HIV).
The target of test [2] is HIV Env of isolate SO18.18 (HIV).
The target of test [3] is Env of HIV isolate 3337.v2.c6 (clade CD) (HIV).
Test [4] has as its target Env of HIV isolate CNE7 (clade BC) (HIV).
The target of test [5] is Env of HIV isolate CNE21 (clade BC) (HIV).
Test [6] concerns the target HIV Env of isolate Ce1176.A3 (HIV).
Test [7] addresses Env of HIV isolate 3718.v3.c11 (clade A) (HIV).
In test [8] the target is Env of HIV isolate ZM214.15 (clade C) (HIV).
Test [9] deals with Env of HIV isolate TV1.29 (clade C) (HIV).
Test [10] has as its target HIV Env of isolate 6480.v4.c25 (HIV).
Test [11] concerns the target HIV Env of isolate 263-8 (HIV).
Test [12] deals with HIV Env of isolate TRO.11 (HIV).
For test [13], the target named is HIV Env of isolate 1054_07_TC4_1499 (HIV).
Test [14] addresses HIV Env of isolate 3301.v1.c24 (HIV).
Test [15] concerns the target HIV Env of isolate 6041.v3.c23 (HIV).
The target in test [16] is HIV Env of isolate REJO4541.67 (HIV).
For test [17], the target named is HIV Env of isolate BJOX009000.02.4 (HIV).
Test [18] concerns the target HIV Env of isolate ZM135M.PL10a (HIV).
Test [19] concerns the target HIV Env of isolate T251-18 (HIV).
The target in test [20] is HIV Env of isolate T250-4 (HIV).
Test [21] concerns the target HIV Env of isolate CNE5 (HIV).
Test [22] has as its target HIV Env of isolate SC422661.8 (HIV).
Test [23] concerns the target HIV Env of isolate ZM109F.PB4 (HIV).
The target in test [24] is HIV Env of isolate WITO4160.33 (HIV).
Test [25] has as its target HIV Env of isolate TRJO4551.58 (HIV).
Test [26] deals with HIV Env of isolate T255-34 (HIV).
Test [27] addresses HIV Env of isolate ZM53M.PB12 (HIV).
In test [28] the target is HIV Env of isolate 1394C9G1(Rev-) (HIV).
Test [29] has as its target HIV Env of isolate 1012_11_TC21_3257 (HIV).
Test [30] addresses HIV Env of isolate CAP210.2.00.E8 (HIV).
Test [31] deals with HIV Env of isolate 7030102001E5(Rev-) (HIV).
The target in test [32] is HIV Env of isolate CAAN5342.A2 (HIV).
Test [33] deals with HIV Env of isolate 0330.v4.c3 (HIV).
Test [34] has as its target HIV Env of isolate BJOX028000.10.3 (HIV).
In test [35] the target is HIV Env of isolate HIV-001428-2.42 (HIV).
Test [36] has as its target HIV Env of isolate 246F_C1G (HIV).
Test [37] concerns the target HIV Env of isolate AC10.0.29 (HIV).
Test [38] deals with HIV Env of isolate 6244_13_B5_4576 (HIV).
Test [39] has as its target HIV Env of isolate Du422.1 (HIV).
For test [40], the target named is HIV Env of isolate 0815.v3.c3 (HIV).
For test [41], the target named is HIV Env of isolate QH0692.42 (HIV).
In test [42] the target is HIV Env of the 113-member cross-clade virus panel (Table 6).
Test [43] addresses HIV Env of isolate HIV-0013095-2.11 (HIV).
Test [44] concerns the target HIV Env of isolate WEAU_d15_410_5017 (HIV).
The target in test [45] is HIV Env of isolate CAP45.2.00.G3 (HIV).
Test [46] has as its target HIV Env of isolate CNE52 (HIV).
In test [47] the target is HIV Env of isolate Ce1172_H1 (HIV).
Test [48] has as its target HIV Env of isolate Du156.12 (HIV).
For test [49], the target named is HIV Env of isolate PVO.4 (HIV).
The target of test [50] is HIV Env of isolate ZM247v1(Rev-) (HIV).
Test [51] addresses HIV Env of isolate 6535.3 (HIV).
Test [52] concerns the target HIV Env of isolate ZM214M.PL15 (HIV).

Where a chain is given by its changes, count along the chain named. “And” between values parts separate entries of the source, which are not always exact repeats. Equal entries are not always repeated.

B1: ePGT121.18 (ePGT121.18.H1 VH and ePGT121.17.L1 VL) (antibody, V domains shown)
VH: QMQLQESGPGLVKPGETLSLTCSVSGASISSSYWSWLRETPGKGLEWIGYTHHSGDTNYAPSLKSRVHLGLHPSKNQVSLSLTSVTAADTAVYYCARTLHGRRIYGVVAFNEYYTYFYWPTWGKGTQVTVSS
VL: SDISVAPGETVRITCGGESIGSRAVQWYQHRPGQAPRLIIYNNQDRPPGIPERFSGSPDIDFGTTATLTISNVEAGDEATYYCHIWDSRRPTNWELGPGTTLTVL
As for B1, the IC50, pseudovirus neutralization in test [1] stood at 0.007 µg/mL; in [3] it was 0.232 µg/mL; in [4] it was 0.003 µg/mL; in test [5] it was 0.0009 µg/mL; in test [7], 0.267 µg/mL; in test [8], 0.018 µg/mL. For the same molecule, in [9], the IC50, pseudovirus neutralization was 0.002 µg/mL. The IC80, pseudovirus neutralization (M1) was determined as 0.005 µg/mL in test [2] and 0.006 µg/mL in [6]. The IC80, pseudovirus neutralization (M2) in test [2] came to 0.007 µg/mL; in test [6], 0.006 µg/mL.

B2: ePGT121.15 (ePGT121.15.H6 VH and ePGT121.15.L1 VL) (antibody, V domains shown)
VH: B1 VH with Y113F, Y114F, P120E, T121V
VL: B1 VL with T14S, P32A, R37K, S71T, E95V, L96F, P98G
With B2, the IC50, pseudovirus neutralization in [1] amounted to 0.014 µg/mL; in test [3], 0.589 µg/mL; in test [4], 0.005 µg/mL; in test [5], 0.002 µg/mL; in test [7] it was 0.489 µg/mL; in [8], 0.028 µg/mL. In [9], this molecule had an IC50, pseudovirus neutralization of 0.004 µg/mL. The results for the IC80, pseudovirus neutralization in test [2] and in test [6] were 0.009 µg/mL and 0.01 µg/mL, respectively.

B3: ePGT121.15.H2.L1 (antibody, V domains shown)
VH: B1 VH with Y113W, Y114F, P120E, T121V
VL: B1 VL with T14S, P32A, R37K, S71T, E95V, L96F, P98G
Turning to B3, the neutralization (Table 6 value) in [10] was 4.5e-05; in test [11], 0.00351 and 0.00488; in test [12], 0.00115; in test [13], 0.00114; in test [14] it was 0.00106; in test [15], 0.275. Besides, the neutralization (Table 6 value) in test [16] was determined as 0.435; in test [17], 0.0259; in test [18], 0.122; in [19] it was 0.0252; in test [20], 0.00084; in test [21], 0.743. For the same molecule, the neutralization (Table 6 value) was 0.00145 in test [22]; 0.873 in test [23]; 0.00428 and 0.00241 in test [24]; 0.00583 in test [25]; 0.00375 and 0.00245 in test [26]; 0.00177 in test [27]. In addition, the neutralization (Table 6 value) in [28] came out at 0.00203; in [29], 0.00172; in [30], 0.0207; in [31], 0.00197; in test [32] it was 0.00112; in test [33], 0.0053. The neutralization (Table 6 value) in [34] is 0.00577; in test [35], 0.00136; in test [36], 0.0024; in test [37] it was 0.00196; in test [38], 0.00689; in test [39] it was 0.00326. Besides, the neutralization (Table 6 value) in test [40] came out at 0.000394; in test [41] it was 0.0116; in test [43] it was 0.698; in test [44] it was 0.00168; in test [45], 9e-06; in test [46], 0.0469. The neutralization (Table 6 value) was 0.000582 in test [47]; 0.000443 in test [48]; 0.00346 in test [49]; 0.000909 in test [50]; 0.00104 in test [51]; 0.00727 in test [52]. In addition, the Breadth in test [42] amounted to 77%. Also, the GeoMean in [42] is 0.004.

B4: ePGT121.18.17 (ePGT121.18.H17 VH and ePGT121.17.L1 VL) (antibody, V domains shown)
VH: B1 VH with H68T, L69I, H72D
VL: B1 VL
Consider B4, for which the IC50, pseudovirus neutralization in test [1] turned out to be 0.035 µg/mL; in test [3], 0.363 µg/mL; in test [4], 0.007 µg/mL; in test [5] it was 0.002 µg/mL; in test [7], 0.957 µg/mL; in test [8], 0.08 µg/mL. In test [9], this molecule registered an IC50, pseudovirus neutralization of 0.011 µg/mL. The IC80, pseudovirus neutralization in test [2] came out at 0.011 µg/mL; in test [6], 0.017 µg/mL.
